In general, stoichiometry N refers to a count of units in the complex or per binding partner. What is called Kd is the equilibrium constant for the complex coming apart. Lower therefore signals a tighter complex.

This passage reports stoichiometry N and Kd results from article PMC3777173.

For test [1], the target named is EDAvidin (fusion protein between the extra domain A from fibronectin and streptavidin). As to the kind of experiment: SDS-PAGE of the sample not boiled against boiled; purified EDAvidin, nondenatured against denatured (boiled), Coomassie blue.
Test [2] deals with biotinylated ovalbumin (UniProt P01012). As to the kind of experiment: SPR; ProteOn XPR36; OVA-biot covalently immobilised on a GLC chip (sulfo-NHS/EDC); EDAvidin in 2-fold dilutions from 100 nM, then (after regeneration with 2 μM biotin) streptavidin; PBS, 0.005% Tween 20, pH 7.4; 30 μL/min; referenced against nonbiotinylated OVA; Langmuir model.
UniProt P01012, sequence (P01012 whole entry): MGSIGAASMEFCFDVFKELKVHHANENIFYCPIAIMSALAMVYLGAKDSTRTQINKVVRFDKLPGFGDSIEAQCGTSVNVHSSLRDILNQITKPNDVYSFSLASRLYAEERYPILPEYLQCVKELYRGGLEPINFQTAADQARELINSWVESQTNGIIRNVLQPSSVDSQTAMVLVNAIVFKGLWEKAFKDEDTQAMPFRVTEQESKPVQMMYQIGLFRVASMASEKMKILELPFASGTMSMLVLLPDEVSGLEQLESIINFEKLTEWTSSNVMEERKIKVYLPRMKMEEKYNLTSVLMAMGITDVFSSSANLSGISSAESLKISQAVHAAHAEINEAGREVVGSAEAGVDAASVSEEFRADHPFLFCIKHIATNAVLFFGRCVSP

In turn, “EDAvidin (fusion protein between the extra domain A from fibronectin and streptavidin)” showed a stoichiometry N in test [1] of 4. For the same substance, the Kd in test [2] stood at 0.023 pM.
